Laboratory results as given in article PMC5575113 (2017).
Substitutions are numbered along the chain they refer to.

B1: GroES^7 (other)
chain: MNIRPLHDRVIVKRKEVETKSAGGIVLTGSAAAKSTRGEVLAVGNGRILENGEVKPLDVKVGDIVIFNDGYGVKSEKIDNEEVLIMSESDILAIVEAMNIRPLHDRVIVKRKEVETKSAGGIVLTGSAAAKSTRGEVLAVGNGRILENGEVKPLDVKVGDIVIFNDGYGVKSEKIDNEEVLIMSESDILAIVEAMNIRPLHDRVIVKRKEVETKSAGGIVLTGSAAAKSTRGEVLAVGNGRILENGEVKPLDVKVGDIVIFNDGYGVKSEKIDNEEVLIMSESDILAIVEAMNIRPLHDRVIVKRKEVETKSAGGIVLTGSAAAKSTRGEVLAVGNGRILENGEVKPLDVKVGDIVIFNDGYGVKSEKIDNEEVLIMSESDILAIVEAMNIRPLHDRVIVKRKEVETKSAGGIVLTGSAAAKSTRGEVLAVGNGRILENGEVKPLDVKVGDIVIFNDGYGVKSEKIDNEEVLIMSESDILAIVEAMNIRPLHDRVIVKRKEVETKSAGGIVLTGSAAAKSTRGEVLAVGNGRILENGEVKPLDVKVGDIVIFNDGYGVKSEKIDNEEVLIMSESDILAIVEAMNIRPLHDRVIVKRKEVETKSAGGIVLTGSAAAKSTRGEVLAVGNGRILENGEVKPLDVKVGDIVIFNDGYGVKSEKIDNEEVLIMSESDILAIVEA
modifications: DyLight 650 NHS ester on amines (for MST)
B2: GroES^7I25A1,4 (other)
chain: B1 chain with I25A, I316A
modifications: DyLight 650 NHS ester on amines (for MST)
B3: GroES^7I25D1,2 (other)
chain: B1 chain with I25D, I122D
modifications: DyLight 650 NHS ester on amines (for MST)

These binders were tested against GroEL^SR (GroEL R452A/E461A/S463A/V464A) (E. coli, UniProt P0A6F5 1-548, R452A | E461A | S463A | V464A) (assay: MST).
B1 was tested, and the Kd was 4.54 nM.
With B2 the Kd was 51.3 nM.
B3 was tested, and the Kd was 38.7 nM.

These binders were tested against GroEL (E. coli, UniProt P0A6F5 1-548) (assay: MST).
With B1 the Kd was 3.05 nM.
Work on B2 yielded a Kd of 8.99 nM.
In the case of B3, the Kd is reported as 9.24 nM.
